{
  "source": "patent US20060105951A1",
  "key": {"[1]": {"target": "melanocortin 4 receptor (MC4R) (Homo sapiens) (UniProt P32245)", "sequence (P32245 whole entry V103I)": "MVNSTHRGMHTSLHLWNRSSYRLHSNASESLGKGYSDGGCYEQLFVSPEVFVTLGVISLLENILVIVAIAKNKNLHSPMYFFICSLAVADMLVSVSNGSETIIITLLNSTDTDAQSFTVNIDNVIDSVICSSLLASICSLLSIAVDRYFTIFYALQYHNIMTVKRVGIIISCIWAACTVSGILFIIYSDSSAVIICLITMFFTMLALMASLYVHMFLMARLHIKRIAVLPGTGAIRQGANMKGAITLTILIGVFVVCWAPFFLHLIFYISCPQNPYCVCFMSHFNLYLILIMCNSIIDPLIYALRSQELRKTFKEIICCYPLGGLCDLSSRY", "assay": "competitive binding assay (range of obtained IC50 values); competitor [125I]-NDP-alpha-MSH"}, "[2]": {"target": "melanocortin 4 receptor (MC4R) (Homo sapiens) (UniProt P32245)", "assay": "cell-based or functional assay"}},
  "data": [
    {"substance": "melanotan II (MTII) (peptide)", "values": [
      {"measurement": "IC50", "setting": "[1]", "value": "5 to 30", "unit": "nM"},
      {"measurement": "EC50, cAMP production, CHOK1 Clone 1 (high MC4R expression)", "setting": "[2]", "value": 0.52, "unit": "nM"},
      {"measurement": "EC50, cAMP production, CHOK1 Clone 2 (low MC4R expression)", "setting": "[2]", "value": 0.52, "unit": "nM"}
    ]}
  ]
}
